Test [1] addresses human SIRPg protein at the surface of cells (human T lymphocyte Jurkat cell line; T cells in PBMC) (human) (UniProt Q9P1W8). Kind of test: cytofluorometry (MFI) on human Jurkat cells, ED50.
Test [2] shares this target. Kind of test: cytofluorometry on Jurkat cells, % of positive cells (not the MFI readout of Table 5).
In test [3] the target is T1, human SIRPg protein at the surface of cells (human T lymphocyte Jurkat cell line; T cells in PBMC) (human, UniProt Q9P1W8 29-387).
T1 construct: whole, on cells; also called SIRPg on Jurkat cells
Kind of test: cytofluorometry (MFI) on human Jurkat cells, ED50. How it is done: To measure binding of mouse anti-hSIRPg on human cell lines, cells were first washed in cold-PSE (Phosphate Buffer Saline with 2% of heat-inactivated bovine serum, 2 mM EDTA), blocked for 30 min at room temperature with a mix of 50-fold diluted human Fc-block (#564220, BD Pharmingen) and 20-fold diluted/heat-inactivated human serum (SAB, # H4522-100, Sigma Aldrich) and then incubated for 10 min on ice to slow the cell metabolism. Antibodies in range were incubated for 30 min on ice, and cells were washed with cold-PSE before staining for 30 min on ice with an Alexa 647-labelled goat anti-mouse IgG at 5 μg/ml (#A21236; Fisher Scientific, Illkirch, France). Samples were analyzed on CytoFlex cytofluorometer (Beckman Coulter France, Villepinte).

The target in test [4] is T2, recombinant human SIRPa protein with His Tag (#11612-H08H, Sino Biological) (human, UniProt P78324 31-370).
T2 construct: Bought protein; also called human SIRPa His; SIRPa-His
In words: ELISA on immobilized SIRPa, ED50. In general terms: An ELISA detects its analyte on a solid surface through an enzyme-linked reagent.

The target of test [5] is human SIRPa on SIRPa positive U937 human monocyte cell line (human) (UniProt P78324). In words: binding to U937 cells expressing SIRPa, ED50.
Test [6] concerns the target T3, recombinant human SIRPg protein with His Tag (#11828-H08H, Sino Biological) (human, UniProt Q9P1W8 29-360, biotinylated in the ELISA binding assay (sites not given)).
T3 construct: Bought protein; also called human SIRPg His; SIRPg-His
In words: SIRPg binding ELISA, DO 450 nm (legend: immobilized SIRPg-His at 1 µg/ml; method 1.4: captured antibody, biotinylated SIRPg).

Test [7] addresses T3, recombinant human SIRPg protein with …. The test is described as above. The source holds these as a separate data set.
Test [8] has as its target T2, recombinant human SIRPa protein with …. In words: competition ELISA on immobilized SIRPa-His against biotinylated CD47-Fc at 3 µg/ml, streptavidin-peroxidase detection [lower graph].

Like-named read-outs stand apart in the source and are kept apart here.

In the case of “LSB2.20 antibody (Biolegend, reference 336602)”, in test [1], the EC50 (commonly the midpoint of the concentration-response curve) is 6.97 µg/mL. Besides, the EC50 (read off the curve) (usually the concentration that produces a half-maximal response) in test [2] was 0.2 µg/mL.

Molecule “OX119 antibody (SantaCruz reference sc-53114)” yielded an EC50 in test [1] of 3.88 µg/mL. Moreover, the EC50 (read off the curve) in test [2] turned out to be 0.2 µg/mL.

B1: 2H9 recombinant chimeric anti-SIRPg antibody (antibody, human IgG4 S228P, kappa, V domains shown)
VH: DVQLVESGGGLVQPGGSRKLSCAASGFTFSSFGMHWVRQAPEKGLEWVAYISSGSTTIYYADTVKGRFTISRDNPKNTLFLQMTSLRSEDTAMYFCARWTVVTNCFDYWGQGTTLTVSS
VL: QIVLTQSPALMSASPGEKVTMTCSASSSISSMYWYQQKPRSSPKPWIYLTSNLASGVPARFSGSGSGTSYSLTISSMEAEDAATYYCQQWSSNLTFGAGTKLELKR
notes: Mouse VH/VL on human IgG4 (S228P)
In turn, B1 had an EC50 in test [3] of 0.426 µg/mL.

B2: Kwar23 antibody (antibody, V domains shown)
VH: EVQLQQSGAELVKPGASVKLSCTASGFNIKDYYIHWVQQRTEQGLEWIGRIDPEDGETKYAPKFQDKATITADTSSNTAYLHLSSLTSEDTAVYYCARWGAYWGQGTLVTVSS
VL: QIVLTQSPAIMSASPGEKVTLTCSASSSVSSSYLYWYQQKPGSSPKLWIYSTSNLASGVPARFSGSGSGTSYSLTISSMEAEDAASYFCHQWSSYPRTFGAGTKLELK
As for B2, the EC50 in test [4] worked out at 0.00469 µg/mL; in test [5], 0.0719 µg/mL. The 50% effective concentration (EC50 (read off the curve)) was about 0.01 µg/mL in test [6] and about 0.006 µg/mL in test [7]. For the same molecule, the “IC50 (read off the curve)” value in test [8] was about 0.7 µg/mL.

B3: 3H8 recombinant chimeric anti-SIRPg antibody (antibody, human IgG4 S228P, kappa, V domains shown)
VH: QIQLVQSGPELKKPGETVNISCMASGYSFTNYGMNWVKQAPGKGLKWMGWINTYTGEPTYADDFKGRFAFSLETSASTAYLQINNLKNEDMATYFCARQPYDYVPSFPYWGQGTLVTVSA
VL: DIVMTQSHKFMSTSVGDRVNITCKASQDVSTAVAWYQLKPGQSPKLLIYWASIRHTGVPDRFTGSGSGTDYTLTISSVQAEHLALYYCQQHYSTPWTFGGGTKLEIKR
notes: Mouse VH/VL on human IgG4 (S228P) and human CL kappa
Molecule B3 yielded an EC50 in test [3] of 0.083 µg/mL.

B4: 11B5 recombinant chimeric anti-SIRPg antibody (antibody, human IgG4 S228P, kappa, V domains shown)
VH: EVQLVESGGDLVKPGGSLKLSCAASGFAFSDYYMYWVRQTPEKRLEWVATISDDGIYTYYPDSVKGRFTISRDNAKNNLFLQMSSLKSEDTAMYYCARGGYRDYYAMDYWGQGTSVTVSS
VL: DIQMTQSPASLSASVGETVTITCRASENIYSYLAWYQQKQGKSPQLLVYNGITLAEGVPSRFSGSGSGTQFSLKINSLQPEDFGDYYCQHHYGSPRTFGGGTTLEIKR
notes: as for B3
In test [3], B4 displayed a concentration for a half-maximal effect (EC50) of 0.195 µg/mL. The results for the “EC50 (read off the curve)” value in test [6] and in test [7] were about 0.007 µg/mL and about 0.006 µg/mL, respectively.

B5: 13F7 recombinant chimeric anti-SIRPg antibody (antibody, human IgG4 S228P, kappa, V domains shown)
VH: QVQLQQSGAELVRPGVSVKVSCKGSGYTFTDYAMHWVKQSHPKSLEWIGVIGTYYGDAYYNQNFKGKATMTVDKSSSTAYMELARLTSEDSAIYYCARRAGTSDWFAYWGQGTLVTVSA
VL: NIVLTQSPASLAVSLGQRATISCRASESVDSYGNSFMHWYQQKPGQPPKLLIYRASNLESGIPARFSGSGSRTDFTLTINPVEADDVATYYCQQSNEDPPTFGGGTKLEIKR
notes: as for B3
With B5, the midpoint of the response in test [3], the EC50, lay at 0.281 µg/mL.

B6: 26F10 recombinant chimeric anti-SIRPg antibody (antibody, human IgG4 S228P, kappa, V domains shown)
VH: EVQLQQSGTELVRSGASVKLSCTTSGFNIKDYYMHWVKQRPEQGLEWIGWIDPENGDTEYAPKFQGKATMTADTSSNTAYLQLSSLTSEDTAVYYCNAYDGYYGAMDYWGQGTSVTVSS
VL: DVVMPQTPLSLPVSLGDQASISCRSSQSLVHSNGNTYLHWYLQKPGQSPKLLIYKVSNRFSGVPDRFSGSGSGTDFTLKISRVEAEDLGVYFCSQNTHVPLTFGAGTKLELKR
notes: as for B3
B6 returned an EC50 in test [3] of 0.156 µg/mL. Moreover, the “EC50 (read off the curve)” value in test [6] is about 0.02 µg/mL.

For the origin of these results see US20250340632A1 (OSE IMMUNOTHERAPEUTICS, published 2025).
